The record followed here is a protein production outcome set (Wang et al. 2014).

This data set can be described thus: label from the status in PepcDB records.
For the sequence “HFNVLADTPSGLVPLHLRSPQVPAAQQMLNFPEKNKEKPVDLQNFGLRTDIYSKKTLAKSKGASAGREWTEQETLLLLEALEMYKDDWNKVSEHVGSRTQDECILHFLRLPIEDPYLENSDASLGPLAYQPVPFSQSGNPVMSTVAFLASVVDPRVASAAAKAALEEFSRVREEVPLELVEAHVKKVQEAARASGKVDPTYGLESSCIAGTGPDEPEKLEGAEEEKMEADPDGQQPEKAENKVENETDEGDKAQDGENEKNSEKEQDSEVSEDTKSEEKETEENKELTDTCKERESDTGKKKVEHEISEGNVATAAAAALASAATKAKHLAAVEERKIKSLVALLVETQMKKLEIKLRHFEELETIMDREKEALEQQRQQLLTERQNFHMEQLKYAELRARQQMEQQQHGQNPQQAHQHSGGPGLAPLGAAGHPGMMPHQQPPPYPLMHHQMPPPHPPQPGQIPGPGSMMPGQHMPGRMIPTVAANIHPSGSGPTPPGMPPMPGNILGPRVPLTAPNGMYPPPPQQQPPPPPPADGVPPPPAPGPPASAAP”, the protein production result is “not failed”.

For “MLKGFTRSSISPQLCSLYFKGLVGDDSLAGFGVAICGHRDDILFQLNAPIHGSDITVLEAELMALKRGLIEAAGFKSSFTIFVEGSSIRYVSELARATIVSELSISVDPPSSSLNGIEKLKLEDVIVWNVVNPYASTAKFGKSENVASMWKVPTHDRTFRRMHQSNLQFTFDFLGCWIGVAIRFATHAEQNGSKEVALIEQ”, the protein production result was “failed”. Next, “MDHVQISVQKLDEILKLNGSALLNRVTLDIHQQLKSHCTCVVEVAHLQHAAHTISFASGGEISDNLSYHLSGTPCEKVAKDIGEHIFYQDQVYKRFPEDQMFQDDGVQAYLGLPLKTQSGEVLGILLSTFTRSIHAKEAQDVLELHRFYANVIIHSLREKWVSERSDKLLNQLSYEVSHDNLTGLLNRSCLADTLETLTQQATRPFNLAYLDIDNFKSINDINGNYIGDQIIKFTANAIQQSLSSPNNAFRVAGDEFAFITYDEDPVAVCQEVLDKIEAGYSDKSNRISFTVSIGIARAPVHMLNSDELILNASLALKDCKKHRDTRIQHYDTHLSALYHRQTQLIEAMRIQLSTSITESHELYVVLQPIVDVNNDRWDYFEILARWNSSVYGNISPAEFIEAAEQSGLIIELGERIIELACIAKQELEAHLGYTVKLSINCSAHELVDSNRYINHLTTLLERYGHDASDFVIELTETVLLSQSGREQMVLNSLRYLGFKVALDDFGTGYSSLNYIHNYPIDSIKIDATFVRNMLSNKTSEQVVYLIAQLAQLLDVDLIAEGVEDDRALNKLIDMGCHYIQGYFYSRPHNVDELVHMINDRQVKRA”: “failed”. As for “MNIQAIDTRHGTANQHSFSNGNCLPYTGVPFGMNFYAPQTTDQKGSWWFHPEDRTFQGYRVTHQPSPWMGDFSHLLMTPVSGSLSELSLFHAQSSYRPEESLFSPVEINLTQLRYQITSQLIPSMYGGILTIDYQQKDNHLLLTLPGRYQVKQLDDHQVAVKVINYSGCEDPDFSFYFVLHFEQPLTKWFAPSSGLEHHHHHH”, the entry is “failed”. Regarding “TLDAPLQRRMEDLLMGWRARLPERTSAAILVVEAENMAVRAYVGSVDISDVKRFGHVDMVTALRSPGSTLKPFLYGMAMDAGLIHSESLMQDVPRRYGDYRPGNFSTGFGGPVAASSALSMSLNLPAVQLLEVYGPKRFAAELRNGGVPLTLPPLAEPNLALILGGAGSRLEDLVAGYSAFARGGRSADVRLQPQDRLRERRMMSPGAAWIIRRILSGQSRPDIDPRAELVQRPQLAWKTGTSYGFRDAWAIGVGPRFLVGVWIGRPDGTPVPGQFGLASAAPLMLQVHDVLVNRDSQRGI”, the protein production entry was “failed”.

In the case of “MIHAVAPCCPHAPRTTWEFHLRLLPLATALTLAVAMGVTPAQENRLPDIGSSAGELLTPARQAEYGKMMLAELRNYDYVLDDPLITDWLQTMGTRLGANSDQPQQPFTFFMLRDRQINAFATLGGYVAVNAGLVLTAEREDEVAAVLSHEIAHVTQQHVLRAVERAQRDQIPILLGMLAAVVAAQQAGGNSKGDATMATITSAMGLMQQRQIDYTRSNESEADRLGIRTLARSGYDVDAMAGFFERMSVAMRANEGGYSAPDFLQTHPVTVTRISEAKARAEQMKKNTVVLTTSVPGGSRQERVDPADPSLSEPLSHNGNALLPYALRLPVDALSRGADQQGFDWAKERLRVLSAATPDAAIREYENLRRSAKQGLSDAQRYGLALAKLRNSGGRPSEPVAELSSLLEAHPDNLWLALGLSQAQARVGQREAANARFDALLKQLPNNRAVALTYASALNEQASKESGQRARQVLEPLVHRSSDDPLLQQSYARACELSGDQLRASEAYAEAAFLNGRAEQALIQLEALKKKDLDYVTRARVDARIAAITPTVLELRRQGIRDPDLSTR”, the protein production result is on record as “failed”. As for “MLAGGSLPSLAPDLVRDLIATAADISLLVSQEGVVREVMANPHHPSFGQLSEWEGRPLEEVLTAESVAKFRLRSEGLEPGRGSVAVELNHIDPRSFEFPIRYILHRLPADRSILMLGRDLRPIAEVQQQLVAAQLAMERDYETQREMETRYRVVLDVSRDPMVLVSMSTGRIVDLNSAAGLLLGGVRQDLLGAAIAQEFEGRRRGEFMETMTNLAATESAAPVEVLARRSQKRLLVVPRVFRAAGERLLLCQIDPADATQPVGDELSENLARLYHEGVDGIVFSDADGTIRGANEAFLNMTDSSSLAAIRGRSIADFLARGSVDLRVLIDSVRRTGQLRLYATRLTTDFAGQIAAEISATWLDDRERPLLVLVVRDTSRADTMRRPVPATGVIDEPARNVMELVGNSTLKDIVAETTDVVEKMCIETALELTRNNRVAAAEMLSLSRQSLYVKLRKFGLLNKDE”, the entry is “failed”. As for “MSQDLIRAAFEKRLSDWAKARTPALPVAWQNTKFTPPAAGVYLRAYVMPAATISRDAAGDHRQYRGVFQVNVVMPIGDGSRSAEQVAAELDALFPVNLVMQSGGLAVRVRTPISNGQPTTGDADHTVPISLGYDVQFYPE”, the entry is “not failed”; as for “MKSTFSVLFFVKKDKQKINGSYPIFVRITIDGVASRFNSKLDVQPKLWDGKAGKAAGRSAEATRINRLLDDINASLNTIYHELQRRDNYVTAEKVKNEFLGHSENHDTILNLFQKHNDDVKQLVGISKTIATYRKYEVTRRHLAEFIQSKYNLSDISIKEITPMFITDFELYLRTTCKCGYNTTAKFMQFFKRIILIARNNGILIGDPFANYKIRLEKVDRGYLTEDEIKIILKKKMVSERLEQVRDVFIFSCFSGLAYVDVANLKEDNIRKSFDGNLWIITKRQKTNTDVNVPLLDIPKMILEKYKGKLPNGKVLPIISNQK”, “not failed”; as for “MVNEVQGIGIPTSHTSVQTTPTKEISRTNTINTVDESKTTIDPDQYKPKLELLSERLNEEMKRIGTDINFSYNDTIKGLVVSVKDANGDKVIREIPSKEAVELMQRMRDVIGIIFDKRG”, “failed”.

Take “MPGFKSDLLIKRMDNEMETWILPTIPAFESTAEIAKIYRVRHQEAIEKSSDIYHFSGFIQEQIVCSLTLTVMGDCARIDDVATFPKYQKNGYATQLILSELQILKDTNISWCFLEASADGLNIYKKIG”: the protein production entry is on record as “not failed”.

In the case of “GGLTEICRKPVSPGCISSVSDWLISIGLPMYAGTLSTAGFSTLSQVPSLSHTCLQEAGITEERHIRKLLSAARLFKLPPGPEAM”, the protein production entry is listed as “not failed”. Next, “MKRSLLACAMSCMMLTVSAHSDFDVRNVDSQFHVPEIGGGVGLIDQQKERQIGEKVFREIQKQMPVVHDPWLQEQYSQIFLRVLAQTSITQPVGLVIIKDPQINAFAVPGGLFALNTGLIANARNIDEVAGVMAHEVAHVTQRHYSRSQEAFKGQGLLALAGILVGAAVATTSNADVGSAVMLGTQAALMDRQLTYSRNQEREADRIGMQYMYAAGYNPQSMADFFETMQRSRVGSSFMPDFWMTHPLTTERMSEARLRANQLPKVETKLYDPNFQLLKWYTLAVSDPSSEKILENVVKQGNKEAQLALGAYYVGQGDFVKAQKQLDDIKSQFNENTLYCLIQTNIYLGQNELDQAYSSIVNIQRAMPESRALAYKLAEVMILQGKAGDTLQLIQPFVNRNPRDLEGWQLMQQASSIDRISPVQTVNTLRYRAEVQFWSGNEENAIKSLLHAQRLAKGNESLSARIDSRLKQMQSDYTMKI”: “failed”. For “MTMETVESQHDGSITASLTESKSAHVQTQTGQNSIPALAQVAAIAETDESAESGGVIDSHKRREILSRRPSYRKILNELSSDVPGVPKIEEERSEEEGTPPSIATMAVPTSIYQTSTGQYIAIAQGGTIQISNPGSDGVQGLQALTMTNSGAPPPGATIVQYAAQSADGTQQFFVPGSQVVVQAATGDMPTYQIRAPTAALPQGVVMAASPGSLHSPQQLAEEATRKRELRLMKNREAAKECRRRKKE”, the protein production result is recorded as “not failed”. For “MPRLPRPPGSSTLRPGAVALGRPDPGPDLNSPEGLIRAARDWLGAGDDQRARLALDRALALRPRAAEALLLRGLVDQRRGDLAAAAEWFRRAIRARKDFADAHLNLGSCLIGLGQTEEALRQFGRAVALAPGMALAHLNLAQALLDQGDLGRARSAIDRARALAPDALPILLARARILAAQEDYEAAGAAWEDCVARAPGDVLVLNDAANFLLEDNRVEDSLALYRRAVALAPTSQEVRKNLIRALMTTGALDEAEAEAVGWLGTQGEDPRFRRLLGDVLVRAGRFPEARSAYVAAWDALPEDDNIPLGLTATGKMKSGEALGDRILERWTAQGAAGVVSADIAYAAGKVLDDRQDYDGAFAAFAQANRLKAADHPFDADAHDRFVEAVSTVFTPALFERFAGLGSPSETPVLVVGLPRSGTTLVEQIIASHPQAAGAGELTHVSRFEHSLPWRVGEAGRRGYPACVAGLDGAILDRFTAHYLHELTRIGPKARRVVDKLPNNFLRLGLFALAFPKARIIHCRRDLVDTCLSLYFQSFAGGHEYRHDLVSLGRYARAYLAMMAHWRRVLPLPMLEVDYADVVADQEKASRTMLEFLGLAWDEVVLRFHKREATVATASRWQVRQPIYATSVARWRRYEQHLSPLLLSLEGKKPSKG”, the protein production result is on record as “failed”. As for “MPGTVSPAPSLQSTTARICPSIRRPTMSRFGALRLPLAVCLAVLLTIASGPARAQPADAPLDEADYGQWERLGGATLSPEGTWMATPIRRVNGNHELRIHHTRRDTTRTVAFGRSPAFSADGQWLAYSIGMSEERRKKRRKQEKPVRRRLGLLNLATGDTTVVPAVSGFAFSDGGRYLAMRRYPPQEAPDDLRGADLLVRDLEAETYTSFGNVADMAWQHEAPHLALTIDGRTETGNGVRLYDAATGRLQTLASTPGDYTGLSWRPAEDDLAALRARDSDDWQHETHVVLAWTGVNDGAPERRQFDPATAGAFPDSLRIVDHRTPAWATERERLFFGVQKREAVAPDTAQADSAAADSLEDYGPAGVKVWHTSDVEIIPRQEVQAEQDREDNYLTAWHLGRSGEAHWTRLGTELTEDVQVLHGGARAVGLDQTPYREERMFGPVYHDLYAIDVATGEREQVAEKVQFFEGPSANGRYLLWLKNDQYHAYDLQQETTNTITADVPVPVVDVDDDHTVEQKPPFGIAGWTAGDRSVLVYSEYDVWRIAPDGSSTERLTTGRADSVRHRYVDLTDEAPGEADVIPRNEPIYWDLYDEWTEEHGYARASALTDTPERMVWKPKMMTGLTKADSADVYAYRVEDFEDSPDYFRAGPQLADARQVTSTNPFQDDYAWGRSDLVAFRNANGKKLQGALFYPADYDPDKTYPMITYIYETRSPQARSYVVPTREHPYNTTTFTQEGYIVFQPDITYRPRDPGNSAVDAIVPGVQAAAEAAAVDTSRIGLVGHSWGGYQTTFTATQTDLFATAVAGAPLTNMVSMYNSIYWRSGGTDARIFEISQGRMGVPPWEDMDAYVANSPLHHIESLNTPFLMAFGTDDGAVEFNQGVEFYNAARRADKELAFLVYDGENHGISRKEKNTVDYRNRVLEWFDHYLKGDEGPAWIQDGVPFLEQVERQEEAAVSR”, the entry is “failed”.
